Results from article PMC5832332 (Nature, 2017).

Target: the molecule itself
Test: crystal structure

B1: Enterococcus faecalis Cas2 (natural protein, UniProt A0A3N3FLR9 1-109, looked up)
chain: MSYRYMRLLLMFDMPTDTASDRKAYRKFRKFLINEGFIMHQFSVYSKILLNDTANKAMLARLKQNNPQRGLITLLNVTEKQFSRMIYLHGEQDNRVANSDERIVFLGEE
- stoichiometry N: 2
